Measured values as given in article PMC3469418, “New Partners in Regulation of Gene Expression: The Enhancer of Trithorax and Polycomb Corto Interacts with Methylated Ribosomal Protein L12 Via Its Chromodomain” (PLoS Genetics, 2012).
Where two headings read alike, the source gives them in different places.

Experiments:
Experiment in all cases: SPR; Biacore 3000; GST, GST-CortoCD or GST-HP1CD covalently coupled to a CM5 chip; peptides injected at 1 or 10 µM (binding test) or in series from 1 to 10 µM (kinetics), 5 µL/min, 5 min; 10 mM Hepes pH7.4, 150 mM NaCl, 3 mM EDTA, 0.005% P20; 1:1 Langmuir fit
[1] = target: GST-CortoCD (Corto chromodomain fused to GST) (D. melanogaster)
[2] = target: GST-HP1CD (HP1 chromodomain fused to GST)
[3] = target: GST-CortoCD (Corto chromodomain fused to GST) (D. melanogaster); remark: listed apart in the source

| Substance | Kd [1] | Kd [2] | Kd [3] |
| --- | --- | --- | --- |
| RPL12 peptide dimethylated on lysine 3 | > 200 µM |  |  |
| RPL12 peptide trimethylated on lysine 3 | 8 µM | > 200 µM | < 100 µM |
| RPL12 peptide trimethylated on lysine 10 | > 200 µM | > 200 µM |  |
| RPL12 unmodified peptide | > 200 µM | > 200 µM |  |
| histone H3 peptide trimethylated on lysine 9 |  | 0.4 µM |  |
| histone H3 peptide trimethylated on lysine 27 |  | 0.7 µM |  |
